# From patent US20140242093A1, “METHODS AND COMPOSITIONS FOR MODULATING THE INNATE IMMUNE RESPONSE AND/OR MYOGENESIS IN A MAMMALIAN SUBJECT” (FRED HUTCHINSON CANCER RESEARCH CENTER, priority 2011, published 2014)
# B1: DUX4-s: short splice form of DUX4 (SEQ ID NO:112), keeps the double-homeobox domains, lacks the C-terminal activation domain (protein, listed as Homo sapiens)
# chain: MALPTPSDSTLPAEARGRGRRRRLVWTPSQSEALRACFERNPYPGIATRERLAQAIGIPEPRVQIWFQNERSRQLRQHRRESRPWPGRRGPPEGRRKRTAVTGSQTALLLRAFEKDRFPGIAAREELARETGLPESRIQIWFQNRRARHPGQGGRAPAQV
# Test system: control human primary myoblasts
# Test: Expression microarray of primary myoblasts transduced with lentivirus carrying DUX4-fl, DUX4-s or GFP
# Procedure: Primary human myoblasts were collected and cultured as previously described (Snider et al., 2010). Primary myoblasts were maintained at or below 70% confluency for proliferation. For differentiation, cells were allowed to reach 95-100% confluency in growth medium. Once confluency was reached, the cells were changed to differentiation medium (F10 media supplemented with 1% horse serum, 10 μg/mL insulin, and 10 μg/mL transferrin, penicillin/streptomycin) and maintained for 4 days. Human RD cells were grown in DMEM in 10% bovine calf serum (Hyclone) and penicillin/streptomycin. The primary myoblasts were transduced with lentivirus carrying DUX-fl, DUX4- or GFP (MOI=15).
# Expression microarrays were performed on the transduced cells at 24 hours after transduction as follows. […] Samples were analyzed by Illumina Human Whole Genome microarrays. Probe intensities were corrected, normalized, and summarized by the Lumi package of Bioconductor (Du et al., 2008). Differentially expressed genes were identified by the LIMMA package of Bioconductor (Wettenhall and Smyth, 2004). Gene set enrichment analysis (GSEA) was performed using the Bioconductor GOstats package (Falcon and Gentleman, 2007).
molecule,measurement,setting,value
B1,IFITM3 expression fc,"Refseq NM_021034.2, cultured human skeletal muscle",−0.1274
same,NEFH expression fc,Refseq NM_021076.2,0.09952
same,fc of SLC8A1 (expression array),Refseq NM_021097.2,1.046
same,PSAT1 fc,Refseq NM_021154.3,0.7365
same,RAB40C fc,Refseq NM_021168.2,−0.07138
same,fc of SLC30A1 (expression array),Refseq NM_021194.2,1.236
same,CTDSP1 fc,Refseq NM_021198.1,0.04155
same,ARHGAP22 fc,Refseq NM_021226.2,0.07773
same,fc of NTN4 (expression array),Refseq NM_021229.3,0.03724
same,PELI2 expression fc,Refseq NM_021255.2,−0.3732
same,PLEKHA2 fc,Refseq NM_021623.1,0.062
same,AVPI1 expression fc,Refseq NM_021732.1,0.1884
same,fc of FAM3A (expression array),Refseq NM_021806.1,−0.1833
same,APOBEC3G expression fc,"Refseq NM_021822.1, cultured human skeletal muscle",1.408
same,fc of C14orf93 (expression array),Refseq NM_021944.1,−0.1073
same,HSPA2 expression fc,Refseq NM_021979.3,−0.2546
same,CXCL16 fc,Refseq NM_022059.1,1.184
same,NOD2 fc,Refseq NM_022162.1,0.4347
same,IFIH1 expression fc,"Refseq NM_022168.2, cultured human skeletal muscle",1.659
same,HS1BP3 fc,Refseq NM_022460.3,0.05143
same,C14orf173 fc,Refseq NM_022489.2,−0.2714
same,FEZ1 fc,Refseq NM_022549.2,0.19
same,HIPK2 fc,Refseq NM_022740.2,0.3559
same,fc of MOSC1 (expression array),Refseq NM_022746.2,−0.1084
same,PARP12 expression fc,"Refseq NM_022750.2, cultured human skeletal muscle",0.7767
same,CRTC3 fc,Refseq NM_022769.3,−0.1184
same,FAM129B fc,Refseq NM_022833.2,0.4382
same,IFI6 expression fc,"Refseq NM_022872.2, cultured human skeletal muscle",−0.03611
same,FGFR3 expression fc,Refseq NM_022965.1,0.04147
same,PRAMEF1 expression fc,Refseq NM_023013.1,0.0691
same,PRAMEF2 expression fc,Refseq NM_023014.1,−0.04937
same,C8orf33 expression fc,Refseq NM_023080.1,−0.06075
same,GRAMD3 fc,Refseq NM_023927.1,0.3772
same,NEUROG2 expression fc,Refseq NM_024019.2,−0.004473
same,NUP37 fc,Refseq NM_024057.2,−0.1339
same,PRRG4 expression fc,Refseq NM_024081.4,0.2096
same,TRIM48 expression fc,Refseq NM_024114.2,−0.07954
same,DHX58 expression fc,"Refseq NM_024119.2, cultured human skeletal muscle",0.6965
same,PRKAG2 fc,Refseq NM_024429.1,0.7547
same,fc of FAM65A (expression array),Refseq NM_024519.2,−0.1263
same,fc of ZC3HAV1 (expression array),Refseq NM_024625.3,1.471
same,YRDC expression fc,Refseq NM_024640.3,0.000579
same,NPEPL1 fc,Refseq NM_024663.3,−0.2631
same,SNIP1 expression fc,Refseq NM_024700.2,−0.174
same,fc of FAM57A (expression array),Refseq NM_024792.1,−0.003135
same,C13orf34 expression fc,Refseq NM_024808.2,−0.002127
same,fc of NUDT18 (expression array),Refseq NM_024815.3,0.1692
same,fc of ZNF672 (expression array),Refseq NM_024836.1,−0.1481
same,C14orf159 expression fc,"Refseq NM_024952.5, cultured human skeletal muscle",0.5194
same,NRSN2 fc,Refseq NM_024958.1,0.06807
same,SLC24A6 fc,Refseq NM_024959.2,0.0001018
same,CSRNP3 expression fc,Refseq NM_024969.2,−0.07941
same,fc of ULBP1 (expression array),Refseq NM_025218.2,0.6193
same,C6orf148 expression fc,Refseq NM_030568.2,−0.1046
same,KLHL15 expression fc,Refseq NM_030624.1,0.7742
same,fc of ZBP1 (expression array),Refseq NM_030776.1,1.187
same,SLC2A10 fc,Refseq NM_030777.3,−0.3197
same,SYNC1 fc,Refseq NM_030786.1,−0.2508
same,PDRG1 expression fc,Refseq NM_030815.2,0.0622
same,UNC93B1 expression fc,"Refseq NM_030930.2, cultured human skeletal muscle",0.9411
same,PPP1R14C expression fc,Refseq NM_030949.2,−0.01369
same,TRIM56 fc,Refseq NM_030961.1,0.3086
same,fc of RNF146 (expression array),Refseq NM_030963.2,0.1463
same,ADPGK expression fc,Refseq NM_031284.3,0.09196
same,C11orf68 fc,Refseq NM_031450.2,0.3616
same,FAM107B expression fc,Refseq NM_031453.2,−0.1841
same,PARP9 expression fc,"Refseq NM_031458.1, cultured human skeletal muscle",0.4426
same,IFI27L2 fc,Refseq NM_032036.2,−0.02949
same,SFRS2B expression fc,Refseq NM_032102.2,−0.3335
same,fc of ATRIP (expression array),Refseq NM_032166.2,0.002138
same,CEP78 expression fc,Refseq NM_032171.1,−0.1396
same,SON expression fc,Refseq NM_032195.1,−0.2838
same,LARP1B expression fc,Refseq NM_032239.2,−0.2602
same,MED10 expression fc,Refseq NM_032286.2,0.5994
same,C1orf57 fc,Refseq NM_032324.1,0.3544
same,ELOF1 expression fc,Refseq NM_032377.3,−0.3008
same,fc of C15orf48 (expression array),Refseq NM_032413.2,1.653
same,PKIB expression fc,Refseq NM_032471.4,−0.1719
same,KBTBD8 expression fc,Refseq NM_032505.1,0.01077
same,TMEM185A expression fc,Refseq NM_032508.1,0.2327
same,PARD6G fc,Refseq NM_032510.3,−0.01049
same,fc of EBPL (expression array),Refseq NM_032565.2,−0.0901
same,fc of ACCS (expression array),Refseq NM_032592.3,−0.1557
same,RBBP6 expression fc,Refseq NM_032626.5,−0.1339
same,SPRYD5 expression fc,Refseq NM_032681.1,−0.07702
same,fc of SPPL2A (expression array),Refseq NM_032802.3,1.124
same,ATOH8 expression fc,"Refseq NM_032827.4, cultured human skeletal muscle",−0.2886
same,CORO6 fc,Refseq NM_032854.2,−0.3004
same,fc of TIGD5 (expression array),Refseq NM_032862.2,−0.2163
same,CASP6 expression fc,Refseq NM_032992.2,0.2336
same,TRIM5 fc,Refseq NM_033034.1,0.5003
same,EPSTI1 expression fc,"Refseq NM_033255.2, cultured human skeletal muscle",0.6618
same,TP53INP1 fc,Refseq NM_033285.2,−0.5734
same,CASP1 fc,Refseq NM_033294.2,2.171
same,PRIC285 expression fc,"Refseq NM_033405.2, cultured human skeletal muscle",0.8634
same,ZNF622 expression fc,Refseq NM_033414.2,0.01403
same,PANX2 expression fc,Refseq NM_052839.2,0.2001
same,fc of C20orf72 (expression array),Refseq NM_052865.2,−0.05254
same,fc of GBP5 (expression array),Refseq NM_052942.2,1.314
same,fc of ALPK2 (expression array),Refseq NM_052947.3,−1.08
same,fc of ANTXR1 (expression array),Refseq NM_053034.1,0.3595
same,AP1S1 fc,Refseq NM_057089.2,−0.1404
same,CCNE1 expression fc,Refseq NM_057182.1,−0.1277
same,FBXO32 fc,Refseq NM_058229.2,0.7666
same,CCNT2 expression fc,Refseq NM_058241.1,−0.3221
same,SLC44A1 fc,Refseq NM_080546.3,0.7801
same,fc of C2orf28 (expression array),Refseq NM_080592.2,−0.07859
same,DYNLL2 expression fc,Refseq NM_080677.1,0.6521
same,HOM-TES-103 fc,Refseq NM_080731.1,−0.3166
same,ZNF280A expression fc,Refseq NM_080740.3,0.05889
same,C20orf127 expression fc,"Refseq NM_080757.1, cultured human skeletal muscle",0.4401
same,fc of PTPRA (expression array),Refseq NM_080841.2,0.04113
same,ASB5 fc,Refseq NM_080874.2,−0.4567
same,APBB3 expression fc,"Refseq NM_133172.2, cultured human skeletal muscle",0.03992
same,fc of DIS3L (expression array),Refseq NM_133375.2,−0.2728
same,C6orf117 expression fc,Refseq NM_138409.1,−0.06998
same,fc of SDSL (expression array),Refseq NM_138432.2,−0.09243
same,TRIM43 expression fc,Refseq NM_138800.1,0.02385
same,CMBL expression fc,"Refseq NM_138809.3, cultured human skeletal muscle",0.06858
same,fc of FGD4 (expression array),Refseq NM_139241.1,1.214
same,ANGPTL4 fc,Refseq NM_139314.1,1.267
same,MBD3L2 expression fc,Refseq NM_144614.2,0.02684
same,JSRP1 fc,Refseq NM_144616.2,−0.4661
same,fc of PPM1M (expression array),Refseq NM_144641.1,−0.2381
same,fc of C1orf58 (expression array),Refseq NM_144695.2,1.054
same,FXYD5 fc,Refseq NM_144779.1,0.09461
same,Cllorf82 expression fc,Refseq NM_145018.2,−0.2738
same,CDC42EP5 fc,Refseq NM_145057.2,0.1387
same,SPATA18 expression fc,"Refseq NM_145263.2, cultured human skeletal muscle",−0.214
same,MOBKL2C fc,Refseq NM_145279.4,0.1274
same,ZNF296 expression fc,Refseq NM_145288.1,0.1758
same,fc of MGST1 (expression array),Refseq NM_145792.1,0.2271
same,OSBPL7 fc,Refseq NM_145798.2,−0.3669
same,TP53I3 expression fc,"Refseq NM_147184.1, cultured human skeletal muscle",0.192
same,fc of GJD3 (expression array),Refseq NM_152219.3,0.8646
same,ACPL2 fc,Refseq NM_152282.3,0.1468
same,fc of C1orf131 (expression array),Refseq NM_152379.2,−0.08789
same,fc of PPM1K (expression array),Refseq NM_152542.2,1.44
same,C12orf50 expression fc,Refseq NM_152589.1,−0.02137
